In patent publication EP0832229B1:
Several values for one entry are separate records, joined by “and”; a condition that tells them apart may be missing. Equal entries are not always repeated.

Key:
[1] = molecular target: CD40/Fc fusion protein (extracellular domain of human CD40 fused to the Fc domain of human IgG1) (human) (UniProt P25942); experiment: BIAcore SPR, CD40/Fc captured by goat anti-human IgG1 Fc; K1 (site 1); experiment 1
[2] = molecular target: CD40/Fc fusion protein (extracellular domain of human CD40 fused to the Fc domain of human IgG1) (human) (UniProt P25942); experiment: BIAcore SPR, CD40/Fc captured by goat anti-human IgG1 Fc; experiment 1
[3] = molecular target: CD40/Fc fusion protein (extracellular domain of human CD40 fused to the Fc domain of human IgG1) (human) (UniProt P25942); experiment: BIAcore SPR, CD40/Fc captured by goat anti-human IgG1 Fc; K2 (site 2); experiment 1
[4] = molecular target: CD40/Fc fusion protein (extracellular domain of human CD40 fused to the Fc domain of human IgG1) (human) (UniProt P25942); experiment: BIAcore SPR, CD40/Fc captured by goat anti-human IgG1 Fc; experiment 2
[5] = molecular target: CD40/Fc fusion protein (extracellular domain of human CD40 fused to the Fc domain of human IgG1) (human) (UniProt P25942); experiment: BIAcore SPR, CD40/Fc captured by goat anti-human IgG1 Fc; K1 (site 1); experiment 2
[6] = molecular target: CD40/Fc fusion protein (extracellular domain of human CD40 fused to the Fc domain of human IgG1) (human) (UniProt P25942); experiment: BIAcore SPR, CD40/Fc captured by goat anti-human IgG1 Fc; K2 (site 2); experiment 2
CD40 on B cells = CD40 on B cells (UniProt P25942); experiment: cell-based or functional assay
[7] = molecular target: CD40/Fc fusion protein (extracellular domain of human CD40 fused to the Fc domain of human IgG1) (human) (UniProt P25942); experiment: biosensor (BIAcore) assay substantially as in Example 3, CD40/Fc captured
[8] = molecular target: CD40/Fc fusion protein (extracellular domain of human CD40 fused to the Fc domain of human IgG1) (human) (UniProt P25942); experiment: BIAcore SPR substantially as in Example 3; K1; average of two preparations
[9] = molecular target: CD40/Fc fusion protein (extracellular domain of human CD40 fused to the Fc domain of human IgG1) (human) (UniProt P25942); experiment: BIAcore SPR substantially as in Example 3; K2; average of two preparations

Molecule | Ka [1] [M⁻¹] | Site 1 (mol/mol CD40/Fc) (mol/mol CD40/Fc) [2] | Site2 (mol/mol CD40/Fc) (mol/mol CD40/Fc) [2] | Ka [3] [M⁻¹] | Site2 (mol/mol CD40/Fc) (mol/mol CD40/Fc) [4] | further results
dimeric human CD40L (CD40L/Fc) (from UniProt P27548 47-260) (Fc fusion) | 1.6e+11 | 0.013 | 0.049 | 7e+08 |  | 
monomeric human CD40L (comprising solely the portion of the extracellular domain most homologous to TNF) (from UniProt P27548 112-260) (ligand) |  |  |  |  | 1.2 and 1.27 | 
trimeric human CD40L (CD40L/"leucine zipper"): oligomerizing zipper followed by the extracellular region of human CD40L, amino acids 51-261 (ligand) | 5e+09 | 0.04 | 0.68 | 7.5e+07 | 0.41 | Ka [5]: 6.6e+08 M⁻¹; Site 1 (mol/mol CD40/Fc) (mol/mol CD40/Fc) [4]: 0.26; Ka [6]: 2.6e+07 M⁻¹
trimeric murine CD40L (oligomerizing zipper, Flag octapeptide, extracellular region of murine CD40L) (from UniProt P27548 47-260) (ligand) | 6e+10 | 0.02 | 0.44 | 1.6e+08 |  | 
wild type CD40 ligand/zipper domain fusion protein (WT) expressed in yeast (ligand, part only; not given: leucine zipper sequence, part only) chain, part: MQRGDEDPQIAAHVVSEANSNAASVLQWAKKGYYTMKSNLVMLENGKQLTVKREGLYYVYTQVTFCSNREPSSQRPFIVGLWLKPSSGSERILLKAANTHSSSQLCEQQSVHLGGVFELQAGASVFVNVTEASQVIHRVGFSSFGLLKL |  |  |  |  |  | B-cell proliferation (U/µg), Experiment 1 (CD40 on B cells): 77 U/µg; B-cell proliferation (U/µg), Experiment 2 (CD40 on B cells): 15 U/µg; Ka [7]: 7.7e+07 M⁻¹; Ka [8]: 7.4e+08 M⁻¹; Ka [9]: 3e+07 M⁻¹
